Publication PMC4585971, “Functional Analyses of the Toxoplasma gondii DNA Gyrase Holoenzyme: A Janus Topoisomerase with Supercoiling and Decatenation Abilities” (Scientific Reports, 2015)

Legend:
[1] = test system: Nc1ncnc2c1ncn2[C@@H]1O[C@H](COP(=O)(O)OP(=O)(O)OP(=O)(O)O)[C@@H](O)[C@H]1O; experiment: purified protein; conditions: Mg2+
EcGyrB = target: T1, EcGyrB (Escherichia coli, UniProt P0AES6); experiment: native PAGE, nucleotide-induced dimerisation ([…] AMPPNP); format: binding
T1 construct: gene gyrB

EcGyrB (Escherichia coli K-12) showed a Km [1] of 540 ± 50 µM.
With `Nc1ncnc2c1ncn2[C@@H]1O[C@H](CO[P@](=O)(O)O[P@](=O)(O)NP(=O)(O)O)[C@@H](O)[C@H]1O` [AMPPNP] the “native PAGE, nucleotide-induced dimerisation (4 mM AMPPNP)” value (EcGyrB) was “This dimerisation pattern (monomer in the absence of nucleotide, dimer in the presence) is the same as for EcGyrB”.
